The values that follow come from patent publication US20130197070, “AXL RECEPTOR TYROSINE KINASE APTAMER INHIBITOR FOR USE IN THERAPY” (CNR - CONSIGLIO NAZIONALE DELLE RICERCHE, published 2013).

Data set [1] concerns the target T1, Dtk (Tyro3) extracellular domain (EC-Dtk) (UniProt Q06418 Q06418:41-429).
T1 sequence: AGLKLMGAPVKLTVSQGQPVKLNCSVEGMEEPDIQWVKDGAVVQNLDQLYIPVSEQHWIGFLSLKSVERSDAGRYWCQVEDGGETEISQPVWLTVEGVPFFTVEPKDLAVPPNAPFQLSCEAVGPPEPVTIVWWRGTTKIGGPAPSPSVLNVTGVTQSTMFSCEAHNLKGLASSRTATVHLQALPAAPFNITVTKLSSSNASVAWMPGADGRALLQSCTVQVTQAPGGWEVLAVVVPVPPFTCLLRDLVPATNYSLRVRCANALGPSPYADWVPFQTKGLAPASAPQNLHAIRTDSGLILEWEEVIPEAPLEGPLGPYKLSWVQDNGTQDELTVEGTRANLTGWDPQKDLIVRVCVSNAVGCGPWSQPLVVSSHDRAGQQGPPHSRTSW
As to the kind of experiment: filter; PBS, 0.01% BSA, 37 C, 15 min; unrelated aptamer background subtracted. The conditions noted are these: tags: soluble extracellular domain, R&D Systems; label: 5'-32P. The protocol:
(§1) 1 nM of radiolabelled aptamers (GL21 52-85 or Unrelated) were incubated with 1, 3.2, 10, 32, 100, 320 and 1000 nM of Axl, Dtk, Mer soluble extracellular domain (all from R&D Systems, Minneapolis, Minn.) for 15 min at 37° in phosphate-buffered saline (PBS) supplemented with 0.01% bovine serum albumin.
(§2) After incubation, the aptamer-protein mix was passed through nitrocellulose membrane filter (Millipore Co., Bedford, Mass.) and filters were counted.

Data set [2] addresses Axl extracellular domain (EC-Axl) (UniProt P30530 P30530:26-451). The data set is described as above. The following applies: tags: soluble extracellular domain, R&D Systems; label: 5'-32P. The protocol: as §1, §2
Data set [3] concerns the target Axl receptor tyrosine kinase (cell surface) (Homo sapiens, UniProt P30530 P30530:26-894). As to the kind of experiment: binding to Axl-positive U87MG cells; reduced by Axl shRNA; binds Axl-transfected SKBr3 but not parental SKBr3. The conditions noted are these: label: 5'-32P.
The target of data set [4] is T2, Mer extracellular domain (EC-Mer) (UniProt Q12866 Q12866:21-505).
T2 sequence: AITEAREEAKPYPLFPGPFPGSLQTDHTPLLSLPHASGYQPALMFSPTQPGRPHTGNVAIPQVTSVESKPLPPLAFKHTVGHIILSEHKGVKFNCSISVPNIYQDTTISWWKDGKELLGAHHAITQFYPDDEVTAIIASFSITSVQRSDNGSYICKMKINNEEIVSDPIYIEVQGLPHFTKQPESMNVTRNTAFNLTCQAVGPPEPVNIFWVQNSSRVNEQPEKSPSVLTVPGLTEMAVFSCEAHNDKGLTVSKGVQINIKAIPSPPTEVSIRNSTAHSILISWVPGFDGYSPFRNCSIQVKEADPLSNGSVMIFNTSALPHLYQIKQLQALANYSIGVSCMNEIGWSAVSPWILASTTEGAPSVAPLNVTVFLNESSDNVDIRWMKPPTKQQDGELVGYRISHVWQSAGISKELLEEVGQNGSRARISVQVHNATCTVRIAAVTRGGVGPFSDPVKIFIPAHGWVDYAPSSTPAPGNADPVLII
As to the kind of experiment: filter; no Kd calculable up to 1000 nM protein; no binding or affinity at least 10^3 lower; PBS, 0.01% BSA, 37 C. The following applies: tags: soluble extracellular domain, R&D Systems; label: 5'-32P. How it is done: as §1, §2

Axl receptor tyrosine kinase (cell surface), sequence (P30530 26-894, one chain of several): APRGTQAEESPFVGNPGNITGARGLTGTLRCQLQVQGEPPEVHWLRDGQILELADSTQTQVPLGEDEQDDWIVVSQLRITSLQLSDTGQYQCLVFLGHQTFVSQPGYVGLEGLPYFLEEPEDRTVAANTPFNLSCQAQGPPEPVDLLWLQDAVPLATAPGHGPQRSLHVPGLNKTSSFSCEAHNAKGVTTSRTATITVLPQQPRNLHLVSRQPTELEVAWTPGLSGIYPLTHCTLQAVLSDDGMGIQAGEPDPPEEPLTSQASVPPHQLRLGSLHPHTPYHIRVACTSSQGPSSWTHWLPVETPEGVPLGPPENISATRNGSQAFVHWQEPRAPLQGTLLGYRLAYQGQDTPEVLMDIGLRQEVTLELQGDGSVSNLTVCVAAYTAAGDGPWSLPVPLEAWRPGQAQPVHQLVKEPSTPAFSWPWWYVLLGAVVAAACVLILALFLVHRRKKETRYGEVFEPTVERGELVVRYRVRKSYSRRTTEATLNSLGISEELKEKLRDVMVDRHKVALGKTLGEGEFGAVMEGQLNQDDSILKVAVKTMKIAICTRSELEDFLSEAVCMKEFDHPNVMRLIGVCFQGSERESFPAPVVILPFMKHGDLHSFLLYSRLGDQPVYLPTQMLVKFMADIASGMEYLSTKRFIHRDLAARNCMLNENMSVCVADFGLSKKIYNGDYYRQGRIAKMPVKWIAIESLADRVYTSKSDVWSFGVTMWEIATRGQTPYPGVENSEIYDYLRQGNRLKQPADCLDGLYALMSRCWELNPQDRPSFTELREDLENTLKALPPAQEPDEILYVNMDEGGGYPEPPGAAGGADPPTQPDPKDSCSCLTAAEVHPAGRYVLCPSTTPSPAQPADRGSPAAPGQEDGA
Axl extracellular domain (EC-Axl), sequence (P30530 26-451, one chain of several): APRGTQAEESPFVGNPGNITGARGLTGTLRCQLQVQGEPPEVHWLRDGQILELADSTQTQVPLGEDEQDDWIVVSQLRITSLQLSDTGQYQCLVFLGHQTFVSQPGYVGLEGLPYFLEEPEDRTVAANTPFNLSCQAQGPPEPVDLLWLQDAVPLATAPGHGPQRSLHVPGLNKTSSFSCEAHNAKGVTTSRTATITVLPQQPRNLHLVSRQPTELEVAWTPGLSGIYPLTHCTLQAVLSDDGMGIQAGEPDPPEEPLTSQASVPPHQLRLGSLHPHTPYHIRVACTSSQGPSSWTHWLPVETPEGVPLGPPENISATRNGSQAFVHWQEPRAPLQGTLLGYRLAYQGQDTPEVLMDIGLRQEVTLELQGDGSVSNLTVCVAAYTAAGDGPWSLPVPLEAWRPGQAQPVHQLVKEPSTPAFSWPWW

Regarding AUGAUCAAUCGCCUCAAUUCGACAGGAGGCUCAC (ssRNA, 2'-F on all pyrimidines) [GL21 52-85 (GL21.T)], the equilibrium dissociation constant (Kd) was determined as 47 nM in data set [1], 13 nM in data set [2] and 90 nM in data set [3]. In data set [4], the binding result was “no binding”.

The term Kd denotes a measure of binding affinity in units of concentration.
